{
  "source": "patent US20140100265",
  "proteins": {"B1": {"name": "hp70S6K (delC/T389E), constitutively active form of human p70S6K protein (protein)", "chain": "MAGVFDIDLDQPEDAGSEDELEEGGQLNESMDHGGVGPYELGMEHCEKFEISETSVNRGPEKIRPECFELLRVLGKGGYGKVFQVRKVTGANTGKIFAMKVLKKAMIVRNAKDTAHTKAERNILEEVKHPFIVDLIYAFQTGGKLYLILEYLSGGELFMQLEREGIFMEDTACFYLAEISMALGHLHQKGIIYRDLKPENIMLNHQGHVKLTDFGLCKESIHDGTVTHTFCGTIEYMAPEILMRSGHNRAVDWWSLGALMYDMLTGAPPFTGENRKKTIDKILKCKLNLPPYLTQEARDLLKKLLKRNAASRLGAGPGDAGEVQAHPFFRHINWEELLARKVEPPFKPLLQSEEDVSQFDSKFTRQTPVDSPDDSTLSESANQVFLGFEYVAPSVLES"}},
  "target": "ribosomal protein S6, P62754",
  "data": [
    {"protein": "B1", "values": [
      {"measurement": "phosphorylation of ribosomal protein S6 (immunoperoxidase staining of SN sections after AAV transduction)", "result": "hp70S6K(CA) induces a detectable increase in phosphorylation of ribosomal protein S6"}
    ]}
  ]
}
